Test results reported in publication PMC12483565, “CBFβ-SMMHC–driven leukemogenesis requires enhanced RUNX1-DNA binding affinity in mice”.

Target: RUNX1c-R201Q (human, UniProt Q01196-8 1-480, R201Q)
Test: EMSA; BLI: 20 mM Tris-HCl pH 8.0, 150 mM KCl, 1 mM EDTA, 1 mM DTT, 0.02% Tween-20, with 800 nM CBFβ or 400 nM CBFβ-SMMHC/mutant, preincubated 37 °C 30 min; EMSA: room temperature 30 min, 4-12% TBE gel, 1x TBE
Details: protein: ivt; label: IRDye700

Chain of RUNX1c-R201Q (Q01196 other isoform, or with tags, fused parts or gaps R201Q | R201Q R201Q): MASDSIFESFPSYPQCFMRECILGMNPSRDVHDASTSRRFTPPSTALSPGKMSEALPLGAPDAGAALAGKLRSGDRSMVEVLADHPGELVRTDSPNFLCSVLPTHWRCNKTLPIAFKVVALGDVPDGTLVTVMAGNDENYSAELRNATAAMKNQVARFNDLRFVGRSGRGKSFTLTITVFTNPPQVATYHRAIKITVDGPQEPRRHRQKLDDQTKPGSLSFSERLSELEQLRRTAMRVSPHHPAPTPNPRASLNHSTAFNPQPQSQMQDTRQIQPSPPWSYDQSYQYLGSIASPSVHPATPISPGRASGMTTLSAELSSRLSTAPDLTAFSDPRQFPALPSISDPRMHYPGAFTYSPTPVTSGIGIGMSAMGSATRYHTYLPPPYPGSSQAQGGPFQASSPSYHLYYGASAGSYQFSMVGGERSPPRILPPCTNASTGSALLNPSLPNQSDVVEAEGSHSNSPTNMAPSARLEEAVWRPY

B1: CSF1R promoter probe (EMSA) (dsDNA)
DNA 1: CAAACTCTGTGGTTGCCTTG
DNA 2: CAAGGCAACCACAGAGTTTG
- binding result: no binding
